# According to the Immune Epitope Database (IEDB):
# Key:
# [1] = biological target: HLA-A*02:06; assay: IEDB peptide-MHC binding, cellular MHC/competitive/fluorescence; ≥ and ≤ were set here for values at or beyond the usual limits of such assays
# [2] = biological target: HLA-A*02:03; assay: IEDB peptide-MHC binding, purified MHC/competitive/radioactivity; ≥ and ≤ were set here for values at or beyond the usual limits of such assays
# [3] = biological target: HLA-A*02:01; assay: as above
# [4] = biological target: HLA-A*02:02; assay: as above
# [5] = biological target: HLA-A*68:02; assay: as above
# [6] = biological target: HLA-A*02:01; assay: IEDB peptide-MHC binding, cellular MHC/competitive/fluorescence; ≥ and ≤ were set here for values at or beyond the usual limits of such assays
# [7] = biological target: HLA-A*68:02; assay: as above
# [8] = biological target: HLA-A*02:06; assay: IEDB peptide-MHC binding, purified MHC/competitive/radioactivity; ≥ and ≤ were set here for values at or beyond the usual limits of such assays
# [9] = source organism: Influenza A virus
# [10] = source organism: Vaccinia virus WR
# [11] = source organism: Hepacivirus hominis
sequence,measurement,setting,value
CLINDPWVL,IC50,[1]; [9],6160 nM
same,IC50,[2]; [9],255 nM
same,IC50,[3]; [9],127 nM
same,IC50,[4]; [9],310 nM
same,IC50,[5]; [9],4550 nM
NITPDDGLGL,IC50,[6]; [10],6530 nM
same,IC50,[7]; [10],12600 nM
same,IC50,[2]; [10],1290 nM
same,IC50,[8]; [10],3450 nM
same,IC50,[4]; [10],1910 nM
EIMDKEQLL,IC50,[1]; [10],26400 nM
same,IC50,[2]; [10],427 nM
same,IC50,[3]; [10],3960 nM
same,IC50,[4]; [10],183 nM
same,IC50,[5]; [10],291 nM
YIEDELRRA,IC50,[6]; [10],5410 nM
same,IC50,[7]; [10],≥ 70000 nM
same,IC50,[2]; [10],259 nM
same,IC50,[8]; [10],1230 nM
same,IC50,[4]; [10],1760 nM
FIQWTGGNI,IC50,[1]; [10],5910 nM
same,IC50,[2]; [10],55 nM
same,IC50,[3]; [10],525 nM
same,IC50,[4]; [10],683 nM
same,IC50,[5]; [10],442 nM
LLNETAKVI,IC50,[1]; [10],15400 nM
same,IC50,[2]; [10],71 nM
same,IC50,[3]; [10],406 nM
same,IC50,[4]; [10],319 nM
same,IC50,[5]; [10],881 nM
LIAGIILLI,IC50,[1]; [10],8220 nM
same,IC50,[2]; [10],39 nM
same,IC50,[3]; [10],109 nM
same,IC50,[4]; [10],0.17 nM
same,IC50,[5]; [10],20 nM
DQDTMLFASA,IC50,[6]; [10],7380 nM
same,IC50,[7]; [10],5660 nM
same,IC50,[2]; [10],663 nM
same,IC50,[8]; [10],1720 nM
same,IC50,[4]; [10],891 nM
DTGKKELAL,IC50,[1]; [10],14200 nM
same,IC50,[2]; [10],156 nM
same,IC50,[3]; [10],3390 nM
same,IC50,[4]; [10],116 nM
same,IC50,[5]; [10],3410 nM
KIDILQMREI,IC50,[6]; [10],6510 nM
same,IC50,[7]; [10],≥ 70000 nM
same,IC50,[2]; [10],414 nM
same,IC50,[8]; [10],875 nM
same,IC50,[4]; [10],1280 nM
QLVFNSISA,IC50,[6]; [10],9420 nM
same,IC50,[7]; [10],8220 nM
same,IC50,[2]; [10],1560 nM
same,IC50,[8]; [10],3780 nM
same,IC50,[4]; [10],4800 nM
QLVWMACHSAA,IC50,[6]; [9],11400 nM
same,IC50,[1]; [9],≥ 70000 nM
MIGNYFSGVL,IC50,[6]; [10],5760 nM
same,IC50,[7]; [10],5620 nM
same,IC50,[2]; [10],761 nM
same,IC50,[8]; [10],1310 nM
same,IC50,[4]; [10],712 nM
GINNVQSLI,IC50,[6]; [10],11700 nM
same,IC50,[7]; [10],30800 nM
same,IC50,[2]; [10],378 nM
same,IC50,[8]; [10],1720 nM
same,IC50,[4]; [10],474 nM
IISTDQDTML,IC50,[6]; [10],8570 nM
same,IC50,[7]; [10],32400 nM
same,IC50,[2]; [10],1810 nM
same,IC50,[8]; [10],666 nM
same,IC50,[4]; [10],451 nM
NIDSIMSMM,IC50,[6]; [10],5140 nM
same,IC50,[7]; [10],11100 nM
same,IC50,[2]; [10],874 nM
same,IC50,[8]; [10],4720 nM
same,IC50,[4]; [10],25 nM
GTKGKLYIA,IC50,[6]; [10],23300 nM
same,IC50,[7]; [10],≥ 70000 nM
same,IC50,[2]; [10],56 nM
same,IC50,[8]; [10],2530 nM
same,IC50,[4]; [10],1720 nM
RLYDYFTRVT,IC50,[6]; [10],6110 nM
same,IC50,[7]; [10],7340 nM
same,IC50,[2]; [10],551 nM
same,IC50,[8]; [10],691 nM
same,IC50,[4]; [10],2450 nM
VIPDELIDVL,IC50,[6]; [10],33000 nM
same,IC50,[7]; [10],9260 nM
same,IC50,[2]; [10],4590 nM
same,IC50,[8]; [10],298 nM
same,IC50,[4]; [10],2490 nM
FTEEQQQSFM,IC50,[6]; [10],10100 nM
same,IC50,[7]; [10],8160 nM
same,IC50,[2]; [10],1750 nM
same,IC50,[8]; [10],833 nM
same,IC50,[4]; [10],1120 nM
QLYTISSESL,IC50,[6]; [10],5290 nM
same,IC50,[7]; [10],6880 nM
same,IC50,[2]; [10],245 nM
same,IC50,[8]; [10],4740 nM
same,IC50,[4]; [10],72 nM
NIKISLNEI,IC50,[6]; [10],21000 nM
same,IC50,[7]; [10],20000 nM
same,IC50,[2]; [10],31 nM
same,IC50,[8]; [10],1500 nM
same,IC50,[4]; [10],1670 nM
VTYNIKPVIV,IC50,[7]; [10],8340 nM
same,IC50,[2]; [10],116 nM
same,IC50,[3]; [10],3000 nM
same,IC50,[8]; [10],358 nM
same,IC50,[4]; [10],4920 nM
KLPTWLGAAI,IC50,[7]; [10],6370 nM
same,IC50,[2]; [10],123 nM
same,IC50,[3]; [10],226 nM
same,IC50,[8]; [10],295 nM
same,IC50,[4]; [10],103 nM
VLTHGLASV,IC50,[7]; source organism: SARS-CoV1,5420 nM
same,IC50,[2]; source organism: SARS-CoV1,0.3 nM
same,IC50,[3]; source organism: SARS-CoV1,3.7 nM
same,IC50,[8]; source organism: SARS-CoV1,1.4 nM
same,IC50,[4]; source organism: SARS-CoV1,9.6 nM
LLVQYGAKI,IC50,[7]; [10],6430 nM
same,IC50,[2]; [10],358 nM
same,IC50,[3]; [10],1770 nM
same,IC50,[8]; [10],1140 nM
same,IC50,[4]; [10],206 nM
ALLSCLTTPA,IC50,[7]; [11],≥ 70000 nM
same,IC50,[2]; [11],211 nM
same,IC50,[3]; [11],161 nM
same,IC50,[8]; [11],231 nM
same,IC50,[4]; [11],439 nM
VMPEKRNVV,IC50,[7]; [10],6590 nM
same,IC50,[2]; [10],23 nM
same,IC50,[3]; [10],495 nM
same,IC50,[8]; [10],3290 nM
same,IC50,[4]; [10],1100 nM
KINEMVDEL,IC50,[7]; [10],48400 nM
same,IC50,[2]; [10],76 nM
same,IC50,[3]; [10],291 nM
same,IC50,[8]; [10],317 nM
same,IC50,[4]; [10],1.4 nM
ILFLTLIVFT,IC50,[7]; source organism: SARS-CoV1,7110 nM
same,IC50,[2]; source organism: SARS-CoV1,1070 nM
same,IC50,[3]; source organism: SARS-CoV1,21 nM
same,IC50,[8]; source organism: SARS-CoV1,703 nM
same,IC50,[4]; source organism: SARS-CoV1,24 nM
ILHNIYRLFT,IC50,[7]; [10],40900 nM
same,IC50,[2]; [10],11 nM
same,IC50,[3]; [10],231 nM
same,IC50,[8]; [10],1210 nM
same,IC50,[4]; [10],125 nM
GMYYPTNDI,IC50,[7]; [10],≥ 70000 nM
same,IC50,[2]; [10],8.7 nM
same,IC50,[3]; [10],268 nM
same,IC50,[8]; [10],1680 nM
same,IC50,[4]; [10],53 nM
FMLCLLLLS,IC50,[7]; [11],≥ 70000 nM
same,IC50,[2]; [11],1450 nM
same,IC50,[3]; [11],2730 nM
same,IC50,[8]; [11],2100 nM
same,IC50,[4]; [11],997 nM
GLCNYGGIL,IC50,[7]; [10],≥ 70000 nM
same,IC50,[2]; [10],125 nM
same,IC50,[3]; [10],412 nM
same,IC50,[8]; [10],1360 nM
same,IC50,[4]; [10],98 nM
